According to publication PMC12847820, “Molecular characterisation of the Bacillus subtilis SpbK antiphage defence system” (Nature Communications, 2025):

Legend:
[1] = molecular target: MBP-SpbK (full-length SpbK as a maltose-binding protein fusion) (Bacillus subtilis); assay: mass photometry + SEC-MALS; MBP-SpbK wild type and mutants in solution; 10 mM HEPES pH 7.5, 150 mM NaCl; Superdex 200 5/150 Increase for SEC-MALS; self-association
[2] = molecular target: MBP-SpbK D158R (Bacillus subtilis); assay: as above
[3] = molecular target: MBP-SpbK G194R (Bacillus subtilis); assay: as above
[4] = molecular target: the molecule itself; assay: mass photometry; YonE in solution; 10 mM HEPES pH 7.5, 150 mM NaCl; self-association

MBP-SpbK (full-length SpbK as a maltose-binding protein fusion) (natural protein)
stoichiometry N [1]: 2

MBP-SpbK D158R (natural protein)
stoichiometry N [2]: 2

MBP-SpbK G194R (natural protein)
stoichiometry N [3]: 2

B1: YonE (residues 46-506), portal protein of phage SPβ (natural protein, Bacillus subtilis phage SPβ, UniProt O31953 46-506, looked up)
chain: EAEQLKNYFSNPDEFQEEIEDLAQYFYISTAEIHQLFELIEALPTLNYKIDSFNKVKSSDKHISLLNKSLHKVKHKRLTRDLLKQVATAGTLVGIWLGDAKSPYPFIFDEIKYVFPSFRRNGDWVCVVDMELFTKYKDDQRNELLKSLSPYIKQSDYENFMKDREKYRFKELPQERTFPLRTGTLKRNQGLGTSWVTPGLYDVLHKKKLKDVERSIANKIINAVAVLTIGTDKGNGEYTNMKLPKAVKQKIHGGVKTALEKNQKDGVTVVSIPDFADINFPDVKADGLDGAKFDHINSDIQSAYGLSGSLLNGDGGNYATSSLNLDTFYKRIGVLMEDIEQEVYQKLFNLVLPAAQKDNYYMNYDKDKPLTLKEKMDILIKLNDKGWSIKHVVDNLAGVSWESYLEQTLYETEELKLQEKIRPYQTSYTFTGNEVGRPNEGNKNNDNTVKSATSNGNDNPI
notes: YonE, product of the SPβ gene yonE, portal protein; truncated construct lacking the first 45 residues, residues 46-506; Dodecamer by mass photometry and cryo-EM; printed theoretical mass of the dodecamer 665 kDa; also called wild-type YonE; YonE dodecamer; source: E. coli BL21 (DE3), autoinduction, purified (IMAC, SEC); copies: 12
stoichiometry N [4]: 12
